The source of these data is US20230391826A1, “COMPOSITIONS AND METHODS FOR TREATING DISEASES” (Sanford Burnham Prebys Medical Discovery Institute, priority 2020, published 2023).

Assay [1] concerns the target EphA2 endogenously expressed on PC3 prostate cancer cells (UniProt P29317). As to the kind of experiment: cell-based or functional assay.
The target in assay [2] is EphA2 extracellular domain fused to the Fc portion of an antibody (EphA2-Fc). Put plainly: ELISA, inhibition of ephrinA5-AP binding to immobilized EphA2-Fc. For orientation: ELISA stands for enzyme-linked immunosorbent assay.
For assay [3] the target is unchanged. As to the kind of experiment: ELISA, inhibition of ephrinA5-AP binding to immobilized EphA2-Fc; representative experiment, triplicates.

pIC50: −log10 of the molar value.

Chain of EphA2 endogenously expressed on PC3 prostate cancer cells (P29317 24-976 limits assumed): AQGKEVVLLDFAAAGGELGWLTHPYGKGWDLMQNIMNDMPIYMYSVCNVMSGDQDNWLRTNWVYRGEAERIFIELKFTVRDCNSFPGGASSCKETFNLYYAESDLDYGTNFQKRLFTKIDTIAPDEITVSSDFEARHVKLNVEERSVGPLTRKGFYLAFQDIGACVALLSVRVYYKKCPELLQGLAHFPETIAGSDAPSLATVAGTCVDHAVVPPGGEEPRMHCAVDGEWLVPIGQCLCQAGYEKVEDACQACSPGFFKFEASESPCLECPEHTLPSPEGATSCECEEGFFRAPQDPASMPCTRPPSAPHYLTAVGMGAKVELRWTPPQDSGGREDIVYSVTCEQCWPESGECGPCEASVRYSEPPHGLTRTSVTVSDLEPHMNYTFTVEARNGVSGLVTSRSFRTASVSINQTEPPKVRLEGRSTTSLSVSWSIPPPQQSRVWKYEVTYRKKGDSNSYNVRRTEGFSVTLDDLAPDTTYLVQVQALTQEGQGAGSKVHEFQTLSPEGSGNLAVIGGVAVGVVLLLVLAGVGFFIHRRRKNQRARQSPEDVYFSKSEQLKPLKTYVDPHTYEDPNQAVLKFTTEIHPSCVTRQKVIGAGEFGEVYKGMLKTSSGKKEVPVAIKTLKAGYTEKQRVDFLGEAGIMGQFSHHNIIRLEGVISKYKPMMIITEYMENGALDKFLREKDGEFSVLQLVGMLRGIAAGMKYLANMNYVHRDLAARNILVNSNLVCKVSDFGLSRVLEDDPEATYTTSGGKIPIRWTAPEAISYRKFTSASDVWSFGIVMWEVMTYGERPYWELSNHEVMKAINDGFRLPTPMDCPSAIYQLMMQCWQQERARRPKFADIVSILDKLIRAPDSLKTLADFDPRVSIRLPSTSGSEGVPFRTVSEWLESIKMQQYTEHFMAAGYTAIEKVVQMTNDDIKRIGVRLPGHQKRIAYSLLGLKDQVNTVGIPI
Chain of m-ephrinA1 (monomer) (ligand) (P20827 19-182): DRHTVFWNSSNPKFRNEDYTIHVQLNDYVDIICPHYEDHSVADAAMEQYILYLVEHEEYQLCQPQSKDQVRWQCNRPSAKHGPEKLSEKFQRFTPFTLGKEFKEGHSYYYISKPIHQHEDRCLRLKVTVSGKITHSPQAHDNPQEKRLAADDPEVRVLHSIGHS

As for m-ephrinA1 (monomer) (ligand), in assay [1], the Blig (bias factor) is 0.3, the EC50 PY588 was determined as 28 nM, the EC50 pAKT inhib is 27 nM and the EC50 pY588 is 74 nM. In assay [1], this substance gave an Emax PY588 (normalized to ephrinA1-Fc) of 0.74, an Etop pAKT inhib of 1, an Etop pY588 (normalized to ephrinA1-Fc) of 0.36 and an IC50 PAKT of 13 nM. In assay [1], this substance showed a βlig (bias factor) of 0.54. In addition, the pIC50 – broadly, the negative decadic logarithm of the IC50, by convention in mol/L – in assay [2] is 7.68. In assay [3], this substance showed a pIC50 of 7.72.
Consider ephrinA1-Fc (dimer) (Fc fusion), for which, in assay [1], the Blig (bias factor) stood at 0, the EC50 PY588 amounted to 0.81 nM, the EC50 pAKT inhib was 1.7 nM and the EC50 pY588 worked out at 3.8 nM. In assay [1], this substance came in with an Emax PY588 (normalized to ephrinA1-Fc) of 1, an Etop pAKT inhib of 1, an IC50 PAKT of 0.62 nM and a βlig (bias factor) of 0.
CGA-WLA-YRPKam dimer (N-ter) (peptide): the pIC50 is 9.40 in assay [2] and 9.31 in assay [3].
